The results in this text go back to PMC5425256 (Developmental Cell, 2017).

This experiment deals with recombinant GST-Pak6 (from pMW-GST-Pak6, E. coli) (human, UniProt Q9NQU5 1-681). The experiment in a line: pull-down. The note with it: both partners purified.
recombinant GST-Pak6 (from pMW-GST-Pak6, E. coli), sequence (Q9NQU5 whole entry): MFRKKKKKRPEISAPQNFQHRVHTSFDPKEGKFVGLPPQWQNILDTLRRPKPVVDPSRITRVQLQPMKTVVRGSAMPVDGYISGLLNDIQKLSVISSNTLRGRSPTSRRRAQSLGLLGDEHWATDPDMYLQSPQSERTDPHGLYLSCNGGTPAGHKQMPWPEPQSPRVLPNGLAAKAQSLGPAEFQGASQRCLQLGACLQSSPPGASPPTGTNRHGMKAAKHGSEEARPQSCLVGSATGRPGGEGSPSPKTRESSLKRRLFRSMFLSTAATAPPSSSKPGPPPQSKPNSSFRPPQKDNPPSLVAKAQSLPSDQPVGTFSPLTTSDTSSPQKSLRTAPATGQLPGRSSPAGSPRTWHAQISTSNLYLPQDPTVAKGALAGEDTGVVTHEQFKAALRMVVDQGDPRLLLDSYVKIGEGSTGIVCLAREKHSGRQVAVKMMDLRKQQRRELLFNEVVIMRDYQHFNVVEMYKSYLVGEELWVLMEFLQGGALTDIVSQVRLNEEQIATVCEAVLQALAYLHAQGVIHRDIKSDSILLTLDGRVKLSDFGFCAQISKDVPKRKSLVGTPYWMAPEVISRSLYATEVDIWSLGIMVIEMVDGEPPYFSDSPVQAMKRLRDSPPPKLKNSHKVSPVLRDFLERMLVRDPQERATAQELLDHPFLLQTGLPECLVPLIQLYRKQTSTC

B1: recombinant His-RhoD loaded with GTPγS (natural protein, mouse, UniProt P97348 1-210, looked up)
chain: MNASQVAGEEAPQSGHSVKVVLVGDGGCGKTSLMMVFAKGAFPESYSPTVFERYNATLQMKGKPVHLQIWDTAGQDDYDRLRPLFYPDANVLLLCFDVTNPNSFDNVSNRWYPEVTHFCKGVPIIVVGCKIDLRKDKVLVNNLRKKRLEPVTYHRGHDMARSVGAVAYLECSARLHDNVEAVFQEAAEVALSSRRHNFWRRITQNCCLAT
As to B1, the binding result was “binds”.
